The target of this assay is ornithine decarboxylase (ODC) (UniProt P11926). Briefly: cell-based or functional assay.
ornithine decarboxylase (ODC), sequence (P11926 whole entry): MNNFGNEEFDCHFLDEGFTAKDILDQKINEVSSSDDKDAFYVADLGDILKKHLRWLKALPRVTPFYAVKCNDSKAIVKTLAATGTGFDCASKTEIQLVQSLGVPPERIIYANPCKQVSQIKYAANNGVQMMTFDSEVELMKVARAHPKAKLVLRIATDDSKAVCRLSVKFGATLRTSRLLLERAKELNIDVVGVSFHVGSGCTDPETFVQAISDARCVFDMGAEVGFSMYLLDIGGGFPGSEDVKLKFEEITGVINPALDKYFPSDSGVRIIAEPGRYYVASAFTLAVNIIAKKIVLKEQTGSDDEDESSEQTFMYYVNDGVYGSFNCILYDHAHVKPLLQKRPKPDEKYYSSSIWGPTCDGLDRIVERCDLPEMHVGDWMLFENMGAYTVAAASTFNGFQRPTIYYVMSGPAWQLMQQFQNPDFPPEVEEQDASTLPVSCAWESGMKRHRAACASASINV

As for “QEP (glutamine-glutamic acid-proline tripeptide)”, the decrease in activity of purified ODC (released CO2) after 1 h with 100 µM peptide came out at 40%.

Source of the values: patent US20170042969A1.
